We go through 2 molecules from article PMC4742745 (The Journal of Biological Chemistry, 2015).

Assay [1] concerns the target T1, recombinant human wild type LCAT protein (lecithin-cholesterol acyltransferase) (human, UniProt P04180 25-440).
T1 construct: human lecithin-cholesterol acyltransferase (EC 2.3.1.43), full-length coding region cloned from liver and brain cDNAs into pDSRa25; also called rLCAT; human rLCAT
T1 sequence (looked up): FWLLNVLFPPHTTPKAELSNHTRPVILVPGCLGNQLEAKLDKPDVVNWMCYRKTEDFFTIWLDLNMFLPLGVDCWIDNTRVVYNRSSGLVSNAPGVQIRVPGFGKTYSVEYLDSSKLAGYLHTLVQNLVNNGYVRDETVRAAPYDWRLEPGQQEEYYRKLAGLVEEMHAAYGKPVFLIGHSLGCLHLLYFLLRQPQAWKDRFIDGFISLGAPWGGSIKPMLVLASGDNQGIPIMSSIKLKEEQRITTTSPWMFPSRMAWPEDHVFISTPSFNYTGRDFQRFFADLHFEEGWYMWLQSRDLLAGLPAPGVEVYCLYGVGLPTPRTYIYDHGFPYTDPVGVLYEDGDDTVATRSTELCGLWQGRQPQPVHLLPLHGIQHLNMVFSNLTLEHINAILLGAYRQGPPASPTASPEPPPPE
Description: SPR; Biacore 3000, 25 °C, HBS-EP (10 mM HEPES pH 7.4, 150 mM NaCl, 3.0 mM EDTA, 0.05% surfactant P20); mAb captured (100 RU) on goat anti-human IgG Fc amine-coupled to a CM5 chip; LCAT flowed over (human 100 nM to 412 pM, cynomolgus 111 nM to 457 pM, 3-fold dilutions); 1:1 binding model, KD = kd/ka. Conditions: both partners purified.

Assay [2] deals with T1, recombinant human wild type LCAT …. Description: cell-based or functional assay.

B1: 18E5, fully human anti-human LCAT agonistic monoclonal antibody (antibody, V domains shown)
VH: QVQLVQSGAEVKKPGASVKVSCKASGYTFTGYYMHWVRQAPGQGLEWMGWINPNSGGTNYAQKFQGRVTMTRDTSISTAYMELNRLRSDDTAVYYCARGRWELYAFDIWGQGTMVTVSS
VL: EIVLTQSPGTLSLSPGERATLSCRASQSVSGSYLTWYQQKPGQAPRLLIYGASSRATGIPDRFSGSGSGTDFTLTISRLEPEDFAMYYCQQYGGSPPFTFGPGTKVDIKR
notes: VH of 18E5; VL of 18E5 (kappa); Human IgG with kappa light chain (the light chain was amplified with a primer to the human kappa constant region); also called 18E5 mAb; source: XenoMouse hybridoma, purified from clonal hybridoma exhaust supernatants
As for B1, in assay [1], the dissociation constant (Kd) came out at 1.01 nM, the off-rate constant (koff) turned out to be 0.000133 s⁻¹ and the kon turned out to be 132000 M⁻¹ s⁻¹.

B2: 27C3, fully human anti-human LCAT agonistic monoclonal antibody (antibody, V domains shown)
VH: QVQLQESGPGLVKPSQTLSLTCTVSGASISSGGYNWSWIRQHPGKGLEWIGYIYYSGSTYYNPSLKSRVTISVDTSKNQFSLKLSSVTAADTAVYYCARERGYCSSTSCSRVMDVWGQGTTVTVSS
VL: SSELTQDPAVSVALGQTVRITCQGDSLRSYYASWYQQKPGQAPVLVIYGKNNRPSGIPDRFSGSSSGNTASLTITGAQAEDEADYYCNSRDNIGNHQVFGGGTKLTVLG
notes: VH of 27C3; VL of 27C3 (lambda); Human IgG2 with lambda light chain; a possible N-linked glycosylation site in heavy chain CDR1; also called 27C3 mAb; 27C3-huIgG2; source: XenoMouse hybridoma, purified from clonal hybridoma exhaust supernatants
Regarding B2, in assay [2], the “increase of the cholesterol esterification activity of native LCAT by 27C3, apoAI-proteoliposomes as substrate” value was determined as 3 fold. The Kd in assay [1] came out at 1.32 nM.
